Data published in IntAct's records for PubMed 25416956.

Key:
tm239_human TMEM239 [1] = biological target: tm239_human TMEM239 (UniProt Q8WW34)
reep6_human REEP6 [2] = biological target: reep6_human REEP6 (UniProt Q96HR9)
praf1_human RABAC1 [3] = biological target: praf1_human RABAC1 (UniProt Q9UI14)
ldaf1_human LDAF1 [4] = biological target: ldaf1_human LDAF1 (UniProt Q96B96)
tfp11_human TFIP11 [5] = biological target: tfp11_human TFIP11 (UniProt Q9UBB9)
reep6_human REEP6 [6] = biological target: reep6_human REEP6 (UniProt Q96HR9); remark: listed apart in the source
tm239_human TMEM239 [7] = biological target: tm239_human TMEM239 (UniProt Q8WW34); remark: listed apart in the source
tfp11_human TFIP11 [8] = biological target: tfp11_human TFIP11 (UniProt Q9UBB9); remark: listed apart in the source
ldaf1_human LDAF1 [9] = biological target: ldaf1_human LDAF1 (UniProt Q96B96); remark: listed apart in the source
praf1_human RABAC1 [10] = biological target: praf1_human RABAC1 (UniProt Q9UI14); remark: listed apart in the source
reep6_human REEP6 [11] = biological target: reep6_human REEP6 (UniProt Q96HR9); remark: listed apart in the source
tfp11_human TFIP11 [12] = biological target: tfp11_human TFIP11 (UniProt Q9UBB9); remark: listed apart in the source
tm239_human TMEM239 [13] = biological target: tm239_human TMEM239 (UniProt Q8WW34); remark: listed apart in the source
atrap_human AGTRAP = atrap_human AGTRAP (UniProt Q6RW13)
Chain of atrap_human AGTRAP (Q6RW13 whole entry): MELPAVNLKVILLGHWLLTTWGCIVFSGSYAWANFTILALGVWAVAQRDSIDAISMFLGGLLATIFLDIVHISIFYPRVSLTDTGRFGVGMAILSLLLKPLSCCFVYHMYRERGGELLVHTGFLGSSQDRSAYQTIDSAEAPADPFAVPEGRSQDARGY

ldaf1_human LDAF1 [14] = biological target: ldaf1_human LDAF1 (UniProt Q96B96); remark: listed apart in the source
praf1_human RABAC1 [15] = biological target: praf1_human RABAC1 (UniProt Q9UI14); remark: listed apart in the source

Measured: effect of a mutation on the interaction

Chain of reep6_human REEP6 (Q96HR9 whole entry): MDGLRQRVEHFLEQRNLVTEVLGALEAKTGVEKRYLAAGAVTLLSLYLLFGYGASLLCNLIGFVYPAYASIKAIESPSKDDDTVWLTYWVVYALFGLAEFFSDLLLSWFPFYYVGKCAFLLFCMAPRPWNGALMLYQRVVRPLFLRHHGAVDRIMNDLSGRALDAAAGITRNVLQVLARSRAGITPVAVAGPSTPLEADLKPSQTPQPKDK
Chain of tfp11_human TFIP11 (Q9UBB9 whole entry): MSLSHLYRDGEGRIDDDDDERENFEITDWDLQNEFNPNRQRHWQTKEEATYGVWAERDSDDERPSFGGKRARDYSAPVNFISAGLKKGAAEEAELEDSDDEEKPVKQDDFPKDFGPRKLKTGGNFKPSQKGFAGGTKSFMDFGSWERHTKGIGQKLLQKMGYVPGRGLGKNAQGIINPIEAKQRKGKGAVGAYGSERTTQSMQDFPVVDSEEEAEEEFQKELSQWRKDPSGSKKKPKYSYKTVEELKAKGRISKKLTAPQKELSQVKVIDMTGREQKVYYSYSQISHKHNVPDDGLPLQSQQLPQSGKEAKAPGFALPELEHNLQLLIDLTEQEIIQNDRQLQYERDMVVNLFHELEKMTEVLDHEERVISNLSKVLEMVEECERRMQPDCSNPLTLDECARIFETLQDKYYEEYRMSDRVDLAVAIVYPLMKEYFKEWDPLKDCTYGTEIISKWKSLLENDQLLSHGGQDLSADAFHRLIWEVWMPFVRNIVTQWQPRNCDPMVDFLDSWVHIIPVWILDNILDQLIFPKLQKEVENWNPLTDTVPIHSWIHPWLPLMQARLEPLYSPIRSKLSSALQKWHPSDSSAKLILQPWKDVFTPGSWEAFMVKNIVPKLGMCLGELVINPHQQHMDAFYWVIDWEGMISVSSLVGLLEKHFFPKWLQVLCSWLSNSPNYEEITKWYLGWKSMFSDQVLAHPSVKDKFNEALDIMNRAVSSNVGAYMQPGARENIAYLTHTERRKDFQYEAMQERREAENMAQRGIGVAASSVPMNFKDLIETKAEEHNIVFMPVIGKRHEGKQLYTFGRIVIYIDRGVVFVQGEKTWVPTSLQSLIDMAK
Chain of tm239_human TMEM239 (Q8WW34 whole entry): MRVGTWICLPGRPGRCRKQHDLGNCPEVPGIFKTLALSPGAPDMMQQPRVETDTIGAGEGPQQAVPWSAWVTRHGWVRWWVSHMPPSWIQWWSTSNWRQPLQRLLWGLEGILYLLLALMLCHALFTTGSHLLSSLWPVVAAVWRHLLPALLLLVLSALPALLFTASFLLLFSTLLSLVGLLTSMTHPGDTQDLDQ
Chain of ldaf1_human LDAF1 (Q96B96 whole entry): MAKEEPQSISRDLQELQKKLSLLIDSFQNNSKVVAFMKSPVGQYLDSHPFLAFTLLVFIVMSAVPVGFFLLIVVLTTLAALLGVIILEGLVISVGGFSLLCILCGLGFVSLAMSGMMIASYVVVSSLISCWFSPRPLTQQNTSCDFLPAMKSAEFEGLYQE
Chain of praf1_human RABAC1 (Q9UI14 whole entry): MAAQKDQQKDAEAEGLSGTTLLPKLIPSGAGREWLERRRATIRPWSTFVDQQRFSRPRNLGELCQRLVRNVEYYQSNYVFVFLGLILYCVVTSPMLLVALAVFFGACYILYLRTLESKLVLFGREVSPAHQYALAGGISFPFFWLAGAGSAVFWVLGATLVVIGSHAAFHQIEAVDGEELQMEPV

Atypical kinase COQ8A, mitochondrial (Homo sapiens), Q8NI60 E551K
disrupting interaction: tm239_human TMEM239 [1] | reep6_human REEP6 [2] | praf1_human RABAC1 [3] | ldaf1_human LDAF1 [4] | tfp11_human TFIP11 [5]

Atypical kinase COQ8A, mitochondrial (Homo sapiens), Q8NI60 G272V
disrupting interaction: reep6_human REEP6 [6] | tm239_human TMEM239 [7] | tfp11_human TFIP11 [8] | ldaf1_human LDAF1 [9] | praf1_human RABAC1 [10]

Atypical kinase COQ8A, mitochondrial (Homo sapiens), Q8NI60 R213W
disrupting interaction: reep6_human REEP6 [11] | tfp11_human TFIP11 [12] | tm239_human TMEM239 [13] | atrap_human AGTRAP | ldaf1_human LDAF1 [14] | praf1_human RABAC1 [15]
